This note sets out measurements from US20230312755A1.

Experiment [1] addresses human Sclerostin (human) (UniProt Q9BQB4). The experiment is described as follows: cell-based or functional assay.
The target in experiment [2] is His-tagged human Sclerostin (NCBI reference No. NP_079513.1) (human) (UniProt Q9BQB4). The experiment is described as follows: ELISA, plate coated with His-tagged human Sclerostin.
The target in experiment [3] is human Sclerostin (human) (UniProt Q9BQB4). In words: BLI (Gator), antibody on anti-hFc biosensor, Sclerostin as analyte, 1:1 global fit.
human Sclerostin (human), sequence (Q9BQB4 24-213 limits assumed): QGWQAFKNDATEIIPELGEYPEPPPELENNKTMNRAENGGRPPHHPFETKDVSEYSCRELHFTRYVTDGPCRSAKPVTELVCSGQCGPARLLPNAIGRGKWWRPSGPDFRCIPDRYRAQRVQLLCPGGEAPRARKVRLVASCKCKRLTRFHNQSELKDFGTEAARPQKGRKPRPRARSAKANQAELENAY

His-tagged human Sclerostin (NCBI reference No. NP_079513.1) (human), sequence (Q9BQB4 24-213 limits assumed): as above

B1: Romosozumab (antibody, INN chains, looked up, V domains shown)
VH: EVQLVQSGAEVKKPGASVKVSCKASGYTFTDYNMHWVRQAPGQGLEWMGEINPNSGGAGYNQKFKGRVTMTTDTSTSTAYMELRSLRSDDTAVYYCARLGYDDIYDDWYFDVWGQGTTVTVSS
VL: DIQMTQSPSSLSASVGDRVTITCRASQDISNYLNWYQQKPGKAPKLLIYYTSRLLSGVPSRFSGSGSGTDFTLTISSLQPEDFATYYCQQGDTLPYTFGGGTKVEIK
Turning to B1, the EC50, Sclerostin-neutralisation activity in HEK293/TCF/LEF/Wnt1 cells (luciferase reporter) in the experiment with human Sclerostin (human) [1] was found to be 42.3 nM. Moreover, the EC50 in experiment [2] stood at 0.11 nM. Moreover, in the experiment with human Sclerostin (human) [3], the Kd turned out to be 0.78 nM, the koff stood at 0.00028 s⁻¹ and the kon came out at 360000 M⁻¹ s⁻¹.
